These results are taken from article PMC4499801, “Resolving single membrane fusion events on planar pore-spanning membranes” (Scientific Reports, 2015).

Primed or numbered codes have the meaning given here. Where no end group is shown, it is not given here. PEG12′ = PEG spacer of 12 units between cholesterol and peptide

The target of test [1] is T1, syntaxin 1A (residues 183-288) (Rattus norvegicus, UniProt P32851 183-288).
T1 construct: syntaxin 1A, Rattus norvegicus, residues 183-288; source: E. coli BL21(DE3), pET28a, purified (Ni-NTA, MonoQ, 1% CHAPS); also reconstituted alone into pore-spanning membranes
T1 sequence (P32851 183-288): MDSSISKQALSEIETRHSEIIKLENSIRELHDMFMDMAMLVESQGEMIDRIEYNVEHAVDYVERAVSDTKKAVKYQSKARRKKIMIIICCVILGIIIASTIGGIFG
Kind of test: assembly of the complex from purified proteins and purification by ion exchange chromatography (MonoQ); three purified proteins mixed with an excess of SNAP25a (1:1:1.5) in 1% CHAPS, over night at 7 °C, complex purified by MonoQ. Particulars: both partners purified.

The target in test [2] is T2, cholesterol-PEG12-(EIAALEK)4 (cholesterol-PEG12 anchor, as printed: cholesterol-PEG12-(EIAALEK)4).
T2 construct: printed as (EIAALEK)4, written out four times; coiled coil forming lipidated peptide; also called SNARE fusion mimetic; lipopeptide; source: reconstituted into pore-spanning membranes
T2 peptide: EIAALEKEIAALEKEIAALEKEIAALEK
Kind of test: single vesicle docking on planar pore-spanning membranes (two color confocal fluorescence microscopy); target reconstituted in pore-spanning membranes (DOPC/POPE/POPS/cholesterol 5:2:1:2, 1,000:1, Oregon Green DHPE), binder in Texas Red DHPE doped LUVs (1,000:1, 325 nm); buffer A (20 mM HEPES, 100 mM KCl, 1 mM DTT, pH 7.4); time series of 300 s. As to conditions: both partners purified.

B1: synaptobrevin 2 (residues 49-96, soluble C-terminal fragment) (domain or fragment, Rattus norvegicus, UniProt P63045 49-96, looked up)
chain: NVDKVLERDQKLSELDDRADALQAGASQFETSAAKLKRKYWWKNLKMM
notes: synaptobrevin 2, Rattus norvegicus, residues 49-96; also called C-terminal soluble fragment of synaptobrevin 2 (residues 49-96); soluble fragment of synaptobrevin 2; source: E. coli BL21(DE3), pET28a, purified (Ni-NTA, MonoS)
As to B1, the binding result in test [1] is reported as “binds”.

B2: cholesterol-PEG12-(KIAALKE)4 (peptide)
peptide: {cholesterol-PEG12′}-KIAALKEKIAALKEKIAALKEKIAALKE
notes: printed as (KIAALKE)4, written out four times; coiled coil forming lipidated peptide; also called SNARE fusion mimetic; lipopeptide; source: reconstituted into large unilamellar vesicles
In the case of B2, the binding result in test [2] was “binds”.
